Consider 18 sequences from the Immune Epitope Database (IEDB).

One assay has as its target HLA-A*11:01. The assay can be described thus: IEDB peptide-MHC binding, purified MHC/competitive/fluorescence; ≥ and ≤ were set here for values at or beyond the usual limits of such assays.
For a further assay, the target named is HLA-A*02:01. Described as above. Conditions: source organism: Zaire ebolavirus.
The next assay concerns the target HLA-A*24:02. The description is as above. The following applies: source organism: Zaire ebolavirus.
Another assay has as its target HLA-B*53:01. Put plainly: IEDB peptide-MHC binding, purified MHC/competitive/radioactivity; filed as Kd, often an IC50 or EC50 that approximates it; ≥ and ≤ were set here for values at or beyond the usual limits of such assays.
The target of a further assay is HLA-B*07:02. The assay is described as above.
Another assay concerns the target HLA-B*54:01. The description is as above.
Assay [1] has as its target HLA-B*51:01. The assay is described as above.
The target in the next assay is HLA-B*35:01. Described as above.
The target of a further assay is HLA-B*44:02. Described as above.
In a further assay the target is HLA-B*18:01. The assay is described as above.
The target of another assay is HLA-B*45:01. The description is as above.
The target of another assay is HLA-B*44:03. The description is as above.
A further assay concerns the target HLA-B*40:02. Described as above.
The target in another assay is HLA-B*40:01. Described as above.
For assay [2], the target named is HLA-B*51:01. Put plainly: IEDB peptide-MHC binding, purified MHC/competitive/fluorescence; filed as Kd, often an IC50 or EC50 that approximates it; ≥ and ≤ were set here for values at or beyond the usual limits of such assays. Conditions: source organism: Mycobacterium tuberculosis CDC1551.
Setting [3] is: source organism: SARS coronavirus Tor2.
The mark [4] stands for this setting: source organism: Mammarenavirus lassaense.
Where [5] appears, read: source organism: Lymphocytic choriomeningitis virus (strain Armstrong).
[6] abbreviates: source organism: Vaccinia virus WR.
The mark [7] stands for this setting: source organism: Mammarenavirus guanaritoense.
The mark [8] stands for this setting: source organism: Triticum aestivum.

Where only a bound is given, the exact number is not on record here.

Sequence SQNSTEGRR came in with an IC50 in the assay with HLA-A*11:01 (source organism: Sudan ebolavirus) of 22400 nM.

With VTLNASQYA, in the assay with HLA-A*11:01 (source organism: Vaccinia virus Copenhagen), the IC50 was no less than 227000 nM.

Turning to NVPGPHRTI, the concentration for half-maximal inhibition (IC50) with HLA-A*02:01 turned out to be 16000 nM; in the assay with HLA-A*24:02 it was 2200 nM; in the assay with HLA-A*11:01 (source organism: Zaire ebolavirus) it was 54400 nM.

Turning to TPLVQPVGAL, the Kd turned out to be 1720 nM with HLA-B*53:01 (setting [3]); 86.9 nM with HLA-B*07:02 (setting [3]); 494 nM with HLA-B*54:01 (setting [3]); 2340 nM with HLA-B*51:01 [1] (setting [3]); 5270 nM in the assay with HLA-B*35:01 (setting [3]).

In the case of EEAIRHVRAW, the Kd was 7.3 nM in the assay with HLA-B*44:02 (setting [3]); no less than 43100 nM in the assay with HLA-B*18:01 (setting [3]); 4770 nM with HLA-B*45:01 (setting [3]); 14.2 nM with HLA-B*44:03 (setting [3]); no less than 70800 nM with HLA-B*40:02 (setting [3]); no less than 69600 nM with HLA-B*40:01 (setting [3]).

For YPSMFEKHI, the dissociation constant Kd with HLA-B*53:01 (setting [4]) was 228 nM; with HLA-B*07:02 (setting [4]), 16300 nM; with HLA-B*54:01 (setting [4]), no less than 20500 nM; in the assay with HLA-B*51:01 [1] (setting [4]), 525 nM; with HLA-B*35:01 (setting [4]) it was 898 nM.

With WEPEFYEAMY, the Kd with HLA-B*44:02 (setting [3]) is 2220 nM; with HLA-B*18:01 (setting [3]), 1650 nM; with HLA-B*45:01 (setting [3]) it was no less than 52400 nM; with HLA-B*44:03 (setting [3]) it was 377 nM; in the assay with HLA-B*40:02 (setting [3]) it was 7180 nM; with HLA-B*40:01 (setting [3]) it was 5410 nM.

With IDYVPLKSAT, the Kd with HLA-B*44:02 (setting [3]) was no less than 40000 nM; with HLA-B*18:01 (setting [3]), no less than 70500 nM; with HLA-B*45:01 (setting [3]), 2050 nM; with HLA-B*44:03 (setting [3]), no less than 70100 nM; with HLA-B*40:02 (setting [3]), no less than 50600 nM; with HLA-B*40:01 (setting [3]) it was no less than 69600 nM.

In the case of LPPGSDEHI, the Kd with HLA-B*51:01 [2] is no less than 20000 nM.

As for HEDLMAAYV, the Kd was 7080 nM with HLA-B*44:02 (setting [3]); 3910 nM with HLA-B*18:01 (setting [3]); 1690 nM with HLA-B*45:01 (setting [3]); 5060 nM in the assay with HLA-B*44:03 (setting [3]); 1330 nM with HLA-B*40:02 (setting [3]); 1200 nM in the assay with HLA-B*40:01 (setting [3]).

Regarding NDLQFGFGW, the Kd was 295 nM with HLA-B*44:02 (setting [5]); 1800 nM with HLA-B*18:01 (setting [5]); no less than 77700 nM with HLA-B*45:01 (setting [5]); 38 nM with HLA-B*44:03 (setting [5]); 10300 nM in the assay with HLA-B*40:02 (setting [5]); no less than 37800 nM with HLA-B*40:01 (setting [5]).

Take APIKEFKAKI: the Kd with HLA-B*53:01 (setting [6]) is 12000 nM; with HLA-B*07:02 (setting [6]) it was 20.2 nM; with HLA-B*54:01 (setting [6]) it was 11200 nM; in the assay with HLA-B*51:01 [1] (setting [6]), no less than 22400 nM; with HLA-B*35:01 (setting [6]), no less than 41400 nM.

With LPIFSEFVL, the dissociation constant Kd came out at 55.8 nM with HLA-B*53:01 (setting [7]); 217 nM in the assay with HLA-B*07:02 (setting [7]); 491 nM in the assay with HLA-B*54:01 (setting [7]); 18500 nM in the assay with HLA-B*51:01 [1] (setting [7]); 8.59 nM with HLA-B*35:01 (setting [7]).

Regarding LPFTLGIMAI, the Kd was 487 nM in the assay with HLA-B*53:01 (setting [3]); 743 nM with HLA-B*07:02 (setting [3]); 150 nM with HLA-B*54:01 (setting [3]); 1210 nM in the assay with HLA-B*51:01 [1] (setting [3]); 4980 nM with HLA-B*35:01 (setting [3]).

VETFYPKLQA: the equilibrium dissociation constant (Kd) is no less than 70200 nM with HLA-B*44:02 (setting [3]); no less than 59600 nM with HLA-B*18:01 (setting [3]); 2600 nM with HLA-B*45:01 (setting [3]); no less than 41400 nM with HLA-B*44:03 (setting [3]); 12600 nM in the assay with HLA-B*40:02 (setting [3]); no less than 69600 nM with HLA-B*40:01 (setting [3]).

Regarding EETFKLSYGI, the Kd came out at 76 nM in the assay with HLA-B*44:02 (setting [3]); 19700 nM with HLA-B*18:01 (setting [3]); 2540 nM in the assay with HLA-B*45:01 (setting [3]); 130 nM with HLA-B*44:03 (setting [3]); 194 nM with HLA-B*40:02 (setting [3]); 3580 nM in the assay with HLA-B*40:01 (setting [3]).

For the sequence LPYPQPQPF, the Kd with HLA-B*53:01 (setting [8]) turned out to be 16.1 nM; with HLA-B*07:02 (setting [8]), 69.3 nM; with HLA-B*54:01 (setting [8]) it was 742 nM; with HLA-B*51:01 [1] (setting [8]), 2.85 nM; with HLA-B*35:01 (setting [8]), 2.53 nM.

Consider AEIVDTVSAL, for which the Kd was 86.4 nM with HLA-B*44:02 (setting [3]); no less than 23100 nM in the assay with HLA-B*18:01 (setting [3]); 287 nM with HLA-B*45:01 (setting [3]); 105 nM with HLA-B*44:03 (setting [3]); 2570 nM with HLA-B*40:02 (setting [3]); 1.14 nM with HLA-B*40:01 (setting [3]).
